Measurements as given in article PMC6051418.

Target: R28A-HD5 (human)
Experiment: crystal structure

Question: For R28A-HD5 (peptide), which stoichiometry N is on record?
Answer: Its stoichiometry N is 2.
